Assay: soluble on expression in E. coli; label from the status in PepcDB or PDB records

Sequence | soluble on expression in E. coli
MIPLCREHNKTCRVKVNYHWRVYNEDINKNAVLELSCQCQVLDQLRKTFVELGSSTIHSAADFEFSCITKDGPVVLSSGYEIYNNIRPELSFYHSQLPQLFLHVRILDVSVIAKLDDLGRTVNECKATMKSDKAWRVMKDTEIAEGQLSLQELLDKQQLEIKSLQKDISEMKLENQCRKKEDKNSFKNKEVHEASCDKCQDLIIGHRFKCAICYNYDLCETCEAAGVHAQHALIRLVSENTLFPEHLIVKNPEEVKDQNGQVQAIASSRDRAIQVPLRRLGITPQAIATKNNVSRYLNAQSDRNIIEDPWYAQHMSSRKPQTYERMHPKLKDTTDGKKVQKVSFRDRFYKKAESSLDKHEKQLRFDLSASRQEFIREKEKFRVEKETLMKQKEQIEEMMKQETINFETNRAFFSDRFEPIFNKVKDGKKSEDDTTRKVEFEVETAESNYPGSIFSDEDSLSDLAEILKDIEEYECSSESSDDQEKDDFDVVEEEAKQS | not soluble
MGSDKIHHHHHHMRELPPLDLYETEAAERAGMAAGEPSAGDVELPAEPLLAGEARGQPFTRQSVAPLATIDLSTVPADDVTPRRWIVPDLIPDRNVTDISGDGGLGKSLLALQLGIAMAAGRDWLGTMPEPGGFLYVSCEDEPNEVLRRRNAVLAGMGLTPGDIRNLYLADLTDAEGTELAAPGKAALELTALHHRFEVTIRQLRPKCAVLDTRADVFGGNELSRVQVRMFVRSLRRLCIAHDMAIILLSHPSVSGMASGSGQSGSTGWGNSVRSRLYLTAPKSEGDTDLDPDIRILSSKKANYGPHGAEIVLRWDRGMFRPDRDALASLDRDQQDREIEVTFLQLLSKREKEGRRANASSGPNYAPKVLAEMNGTISRAKFRGAMERLFAKEEIASVSYEANGKGSTQLVLTDKGMSRLRIPF | not soluble
IKKEPEKPIDREKTCPLLLRVFTTNNGRHHRMDEFSRGNVPSSELQIYTWMDATLKELTSLVKEVYPEARKKGTHFNFAIVFTDVKRPGYRVKEIGSTMSGRKGTDDSMTLQSQKFQIGDYLDIAITPPNRAPPTSGRMRPY | not soluble
GMEPIMRNPEDALLDSWHQNAQAWIDAVRHGAIESRRQVTDQAILLAILGRQPERVLDLGCGEGWLLRALADRGIEAVGVDGDRTLVDAARAAGAGEVHLASYAQLAEAKVPVGKDYDLICANFALLHQDIIELLSAMRTLLVPGGALVIQTLHPWSVADGDYQDGWREESFAGFAGDWQPMPWYFRTLASWLNALDMAGLRLVSLQEPQHPQSAVPQSLLMVAERH | soluble
AHHHHHHASAKWVCKICGYIYDEDAGDPDNGISPGTKFEELPDDWVCPICGAPKSEFEKLEDGSIEIRTHTALHVLKGAVVKVLGEGAKWTASVYVNGNHGRLTVKFNRKPTHEEIREIERLANEKIKENVPIQIYELSREEAEKIFGDEMYDLFPVPEHVRTLKVVVIEDWNVNACNKEHTKTTGEIGEIKIRKVRFRKSKELLEISFDVL | soluble
MGSDKIHHHHHHMLLSRVAESLYWINRYLERAENISRFVEVSESMALDCPPGSAEPWLPLVDASGDRNKFDESYLNKTPSDVANFLIKDRENPNSILSCICMARENARQIRDVITSEMWEQINSLYWSIQEGEVIWHQPAQEQLFEIRRGCQLFYGVTDATFSHDIAWNFSKLGRLIERADKTSRILDVKYFLLLPNLKELGGALDELQWISLLRSAGAYQMFRISEQGSITPNAIASFLLLDPIFPRSVRFCLEGINESLSKIQNSPVSKKPNDLECLIGLLLSKWSFVRIDHLIKDGLHEAIDSLQIDLNKLHDLIHGIYFRNDKKFDFESLQG | not soluble
GPVKLRLTVLCAKNLVKKDFFRLPDPFAKVVVDGSGQCHSTDTVKNTLDPKWNQHYDLYIGKSDSVTISVWNHKKIHKKQGAGFLGCVRLLSNAINRLKDTGYQRLDLCKLGPNDNDTVRGQIVVSLQSRD | soluble
MQKKYYEDSHQDSYLLGVKEKDEVLLTALMRKIKNHTGDVYEIMGGPLVDFENENNNQIIAFFLKELHKYLKKQHAYYLRIVPNEKTQRVENNGKVVNYDLKNYSSLYFAEGFIYRSFEQVGYGFATPHYEYQKRIEGLNKKTLFQSYSKKTQYSIKKTYEFGITTRNISYDELEMFHENTTKTAKRLGFYDKELSYYQSVYRTFGDNAKFMIAEINLSDYIGHFQEIIRNLKDKIDQMILIDSKREKPTKTRQIKELRSQVEQHEKRIVQAKKLIEQYGKKINLAGALFFIQPQEVSYMFSYTNAEFKNFYGPYRTQADMLEFALKEKVPVYNFYGVSGDRSGHDGVYEFKKGFQGYMVDNMGAFILPINKFRYQFLQTIKKIIRRR | not soluble
MAHHHHHHMTKSYLNQDQQLRAQQVYTTHKHLKELSMATKEALTYHDKYLAAMEHVMSCLLNNSDALEDARKHLTQEAAVDIQPTFPTAGRLAAAYSNWRVSAELHMMRTELEFLKEVSTTGHEAVKKTKNAVHGLEKVAKKCAHVNSPEFEAKISSKSGKALEKLLHEQRETNTMMMSIENAIKKDMMSLATSWSAKLVTRGDALYTAFRSLGCRTVACFPTTDPTLSQGMPPPAAGYVLSQPSSASTSVPYSGGTAVGHGTPSTLPAAQSVECAAVPLSSAGEGAAAGVKLEFNLNEGKPVSR | soluble
MMGRGKLILIEGLDRTGKTTQCNILYKKLQPNCKLLKFPERSTRIGGLINEYLTDDSFQLSDQAIHLLFSANRWEIVDKIKKDLLEGKNIVMDRYVYSGVAYSAAKGTNGMDLDWCLQPDVGLLKPDLTLFLSTQDVDNNAEKSGFGDERYETVKFQEKVKQTFMKLLDKEIRKGDESITIVDVTNKGIQEVEALIWQIVEPVLSTHIDHDKFSFF | soluble
MSNQYINEPITTGKVTLETTAGDIEIELWTKEAPLACRNFIQLCMENYYKGTVFHRLVKNFILQGGDPTATGTGGESIYGKPFKDEIHQRLKFNRRGIVGMANAGRDDNGSQFFFTIGDRGAPELDKKHTIFGKVTGPTLFNMLKITEVETEGDRPVTFYKITGARIDNNPFDDLKPREKRKKEKSERRKEPKVVETKKTNLLSFGDEVEEDEQELAVFNKV | not soluble
MQMCFSKSAQHHSKVKQRNSLLEIMENCFEMMVARCIKIGTVQTLTMLGLLPEVVTISQAEDIYGKRLITEWREKAWIKFYPANNKERGKYYVKRSELETASAMMDLHNKVPDNIIKQLMQLTV | not soluble
MGSDKIHHHHHHMTWQVWRLGGLAITMVASLLLLDACSRDKAPVQIRSAVSQLPQTLDPRYATDAASARVNRLIYRSLVDFDVHARPAPSLASWRVLSPRLFRFTLGRHGRDFHDGRYLTAEDVAATYQSVIELADSPHAAEFANISKIEVRDENTLDFFLHDADSNFPARLILGILPAELIARQHDFSREPVGSGPFKFVSWQRSLKLERRSDKKRFVFEEVRDPTVRVLKLVRGEADILQGDLPPELVNYLKQQPGIDVQESEGSNFAYIGLNLQDDVLRNPLVRQALAHAIDRESIIKHALVGHSRLAESILPPEHWAGNGNLKPYEYNPVLARELLLRAGVSLPLKLVYKTSTDAQRVRLATMMQAQMRDAGIQLEIRSLDWGTFFDDIKRGNFQLYGLMWVGIKTPEIYHHAFHSSSVPPKGANRGHYADPKTDELIAVSDWASVAERVHAQLPYIPLWYEGQFAATRDHIKGYSLQPDGSWDGLVDVKRSKLKSVFPGRNQSAGM | not soluble
PRVVFIDEQSGEYAVDAQDGQSLMEVATQNGVPGIVAECGGSCVCATCRIEIEDAWVEIVGEANPDENDLLQSTGEPMTAGTRLSCQVFIDPSMDGLIVRVPLPA | soluble
MAHDLARGDKSDLRDKVVKPITNNVSVLVMGVDESDVRGKEYGDAIRTDALLLATFNKDSKTVKLLSIPRDTYTYIPVEKKKDKITHAHAYGSTKNGKDGGPQASIDAVEKLLNVPVDYFVKFNFKSFMKIVDDLGGIEVDVPVEFTEQDSNDNADAIHLKKGVQKLNSEEALALARTRHIDSDAMRGQRQQLVIEAILKKLTSVGSVTKVGNIIDDINGQFVTNLTFDDMLSFYKYGSDSEIEKLQIQGEDCYMAKGLEHHHHHH | soluble
SMPEQSNDYRVVVFGAGGVGKSSLVLRFVKGTFRDTYIPTIEDTYRQVISCDKSVCTLQITDTTGSHQFPAMQRLSISKGHAFILVFSVTSKQSLEELGPIYKLIVQIKGSVEDIPVMLVGNKCDETQREVDTREAQAVAQEWKCAFMETSAKMNYNVKELFQELLTLETRRNMSLNIDGKRSGKQKRTDRVKGKCTLM | soluble
SGHPPLEFSDCYLDSPDFRERLKCYEQELERTNKFIKDVIKDGNALISAMRNYSSAVQKFSQTLQSFQFDFIGDTLTDDEINIAESFKEFAELLNEVENERMMMVHNASDLLIKPLENFRKEQIGFTKERKKKFEKDGERFYSLLDRHLHLSSKKKESQLQEADLQVDKERHNFFESSLDYVYQIQEVQESKKFNIVEPVLAFLHSLFISNSLTVELTQDFLPYKQQLQLSLQNTRNHFSSTREEMEELKKRMKEAPQTCKLPGQPTIEGYLYTQEKCVWGHRGIHWVSISQELLPLVGCEFWAPLLFIDP | soluble
MGSDKIHHHHHHMREIEHAKYSRLKNAIYKDASVALLTQHGKEKVVTPILASAIGCEVTLVTGFDTDQLGTFTRDIPRAGTQIEAARKKARIGMELAHLPLGLASEGSFGPDPFTGLFSLNVEMVVWIDDTLGIEVVGVASGRTNFSHLLAANWEQAEAFARAIDFPEHGIVVRPRHEDDSRVRKGIADWESLREAFFWACGEADNGCVFLETDVRAHMNPMRMEIIASATRDLADKLATPCPVCNTPGFQIVERVPGLPCEGCGAPTRDTWADIHRCGRCGHQVALERLEKAAPAGHCDWCNP | not soluble
MAGAGGQRNSEHVLCDACYFEEFDLVDAPDTIQVRVCSRCGAVHKGNRWVDIGAEDYTDIAVEQVSEALGIHVDAQSVAWQVAPEQLDKNNIRMHAEFSGVIRGTPVTEEVTVPVRISRQTCKRCGKIAGGSFASIVQVRADGRDPTDDERERAEEIAQEYVAAREETGDRNAFITETKSVDDGLDMKISTNQMGLGIAKRITAQLGGSYSDSRRLISEDEDGQELYRMTYAVRLPRYRQGEVIDPEDGDGPVLVRSVQGNLKGVRLATGEDYEASFEAGETPDARRLGFREDGQQTTLVAIEDERAVQVLDPETFESKTVPRPDYLDIDADEVPVLKSHAGLHILPAADADTDELEHHHHHH | not soluble
MGSDKIHHHHHHMKLICSKANLLKGVNIVSKAVPTRTTMAILECILIDASANEIKLMANDMELGIETIIDGTIEERGIIALDAKIFSEIVRKLPDNDVTIETDASFKTVISCEKAKFNIIGKSGDDFSYIPYVERNESIVLSQFTLKEVIRQTIFSIADNDNNKLMTGELFEIEENKLRVVSLDGHRISIRYIEMKNHYDSKKVVVPGKTLQEISKIIPGSADEDVVIYITNNHIVFEFENTTVVSRLIEGEYFKIDQMLSSDYDTKVRINKRELLDCIDRATLLVKEGDKKPIIMNITDGNMELRINSFIGSMNEDIDIDKDGKDIMIGFNPKFFIDALRVIDEEEVNLYMVNPKAPCFIKDDEGKFIYLILPVNFNTAAN | not soluble
MAHHHHHHMEAPTDNDSMQAGPVVVGHADGVLTMPSEDFASLHLQPIQDDTWIRNAEIVHMENFVETEDGKRIKREILKEYVEEKERQGTFHPDPILEGMIYQEKFMEAYRTNGRSVDADKAHSYRLKLLETHRRARAIENADT | not soluble
MSPPDLEDEPFMENQDVAGENDLFVLDGRQDPPNLPQNHLEEVVGEIVENLERWHFAEILADGAEIHEDIIEDVGGDEVEEEEVDIDWVSPLSKEYSKPFSKS | not soluble
ALTSNASGTFDGYYYELWKDTGNTTMTVYTQGRFSCQWSNINNALFRTGKKYNQNWQSLGTIRITYSATYNPNGNSYLCIYGWSTNPLVEFYIVESWGNWRPPGATSLGQVTIDGGTYDIYRTTRVNQPSIVGTATFDQYWSVRTSKRTSGTVTVTDHFRAWANRGLNLGTIDQITLCVEGYQSSGSANITQNTFSQSS | soluble

Source: the DeepSol protein solubility set
